Experimental data: article PMC5314460 (Structure (London, England : 1993), 2017)

T1: Enp1 (yeast, UniProt P38333 1-483)
T1 sequence (looked up): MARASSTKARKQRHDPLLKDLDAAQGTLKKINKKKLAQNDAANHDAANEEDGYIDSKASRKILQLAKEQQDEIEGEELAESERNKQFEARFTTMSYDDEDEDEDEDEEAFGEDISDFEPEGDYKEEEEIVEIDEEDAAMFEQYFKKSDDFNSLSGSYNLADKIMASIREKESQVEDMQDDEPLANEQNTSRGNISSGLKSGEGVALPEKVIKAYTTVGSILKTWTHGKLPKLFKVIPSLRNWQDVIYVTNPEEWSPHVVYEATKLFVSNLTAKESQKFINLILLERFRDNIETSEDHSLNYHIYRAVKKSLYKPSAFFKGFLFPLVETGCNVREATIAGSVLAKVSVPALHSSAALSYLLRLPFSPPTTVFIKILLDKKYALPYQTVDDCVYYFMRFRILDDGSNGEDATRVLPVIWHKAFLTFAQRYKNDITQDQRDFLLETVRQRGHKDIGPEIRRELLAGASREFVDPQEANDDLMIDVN

T2: SUMO-Rps3 (yeast, UniProt P05750 1-240)
T2 sequence: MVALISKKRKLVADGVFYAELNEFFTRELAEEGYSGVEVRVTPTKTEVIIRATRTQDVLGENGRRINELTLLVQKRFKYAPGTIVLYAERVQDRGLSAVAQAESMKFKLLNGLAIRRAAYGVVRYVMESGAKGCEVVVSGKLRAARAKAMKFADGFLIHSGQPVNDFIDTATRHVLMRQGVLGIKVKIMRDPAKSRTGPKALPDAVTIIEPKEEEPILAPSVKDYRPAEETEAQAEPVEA

T3: Enp1-TPR (residues 154-483) (yeast, UniProt P38333 154-483)
T3 sequence (looked up): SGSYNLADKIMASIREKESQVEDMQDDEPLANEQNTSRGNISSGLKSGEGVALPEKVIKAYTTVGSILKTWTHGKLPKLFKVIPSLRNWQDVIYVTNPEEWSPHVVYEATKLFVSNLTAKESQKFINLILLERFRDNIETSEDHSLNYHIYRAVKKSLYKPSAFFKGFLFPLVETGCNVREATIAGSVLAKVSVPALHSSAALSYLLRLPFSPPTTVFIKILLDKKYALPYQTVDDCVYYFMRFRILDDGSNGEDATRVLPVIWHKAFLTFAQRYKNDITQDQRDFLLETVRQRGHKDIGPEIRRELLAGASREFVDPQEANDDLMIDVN


Columns and labels:
Test in all cases: pull-down
Enp1 = molecular target: T1, Enp1
SUMO-Rps3 = molecular target: T2, SUMO-Rps3
[1] = molecular target: T3, Enp1-TPR (residues 154-483)

Row | Binder | binding result (Enp1) | binding result (SUMO-Rps3) | binding result [1]
1 | Ltv1-M (residues 185-394) (domain or fragment, yeast, UniProt P34078 185-394, looked up) DDVVVEDISKKTQLQGDNYGEEEKEDDIFAQLLGSGEAKDEDEFEDEFDEWDIDNVENFEDENYVKEMAQFDNIENLEDLENIDYQADVRRFQKDNSILEKHNSDDEFSNAGLDSVNPSEEEDVLGELPSIQDKSKTGKKKRKSRQKKGAMSDVSGFSMSSSAIARTETMTVLDDQYDQIINGYENYEEELEEDEEQNYQPFDMSAERSD | binds | binds | binds
2 | Ltv1-N (N-terminal 180 residues) (domain or fragment, yeast, UniProt P34078 1-180, looked up) MSKKFSSKNSQRYVVVHRPHDDPSFYDTDASAHVLVPVSNPNKTSPEADLRKKDVSSTKPKGRRAHVGEAALYGINFDDSEYDYTQHLKPIGLDPENSIFIASKGNEQKVEKKNIEDLFIEPKYRRDEIEKDDALPVFQRGMAKPEYLLHQQDTTDEIRGFKPDMNPALREVLEALEDEA | – | binds | –
